From patent publication US20150203577A1 (Chugai, published 2015)
Positions count from the first letter of the chain named.

T1: mouse FcγRIII extracellular domain, C-terminally His-tagged (mouse, UniProt P08508 31-215)
T1 construct: the whole entry is named; also called mFcγRIII; mFcgRIII
T1 chain: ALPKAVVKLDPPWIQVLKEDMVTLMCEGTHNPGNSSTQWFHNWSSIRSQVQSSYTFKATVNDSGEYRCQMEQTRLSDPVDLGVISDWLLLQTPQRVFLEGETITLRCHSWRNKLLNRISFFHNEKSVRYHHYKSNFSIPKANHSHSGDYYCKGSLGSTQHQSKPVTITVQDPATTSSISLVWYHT

T2: mouse FcγRII extracellular domain, C-terminally His-tagged (mouse, UniProt P08101 30-210)
T2 construct: the whole entry is named; also called mFcγRII; mFcgRII
T2 sequence: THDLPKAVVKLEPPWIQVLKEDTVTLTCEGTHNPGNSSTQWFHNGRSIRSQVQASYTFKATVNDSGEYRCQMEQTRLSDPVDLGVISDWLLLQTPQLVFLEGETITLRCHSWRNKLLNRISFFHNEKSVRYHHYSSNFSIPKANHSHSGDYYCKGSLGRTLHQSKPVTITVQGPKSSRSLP

B1: H237-MB476/MRAL-k0 (antibody, mouse IgG1, kappa)
heavy: QVQLQESGPGLVKPSETLSLTCAVSGHSISHDHAWSWVRQPPGEGLEWIGFISYSGITNYNPSLQGRVTISRDNSKNTLYLQMNSLRAEDTAVYYCARSLARTTAMDYWGEGTLVTVSSAKTTPPSVYPLAPGSAAQTNSMVTLGCLVKGYFPEPVTVTWNSGSLSSGVHTFPAVLQSDLYTLSSSVTVPSSTWPSETVTCNVAHPASSTKVDKKIVPRDCGCKPCICQPNEVEEVFIFPPKPKDVLTITLTPKVTCVVVDISKDDPEVQFSWFVDDVEVHTAQTQPREEQFNSTFRSVSELPIMHQDWLNGKEFKCRVNSAAFPAPIEKTISKTKGRPKAPQVYTIPPPKEQMAKDKVSLTCMITDFFPEDITVEWQWNGQPAENYKNTQPIMDTDGSYFVYSKLNVQKSNWEAGNTFTCSVLHEGLHNHHTEKSLSHSPGK
light: not shown
notes: Template; copies: 2 + 2
B2: H237-MB531/MRAL-k0 (antibody, mouse IgG1, kappa)
heavy: B1 heavy with N320D, K330R
light: not shown
notes: copies: 2 + 2
B3: H237-MB542/MRAL-k0 (antibody, mouse IgG1, kappa)
heavy: B1 heavy with Q229E, E235M, N320D, A322D
light: not shown
notes: copies: 2 + 2
B4: H237-MB537/MRAL-k0 (antibody, mouse IgG1, kappa)
heavy: B1 heavy with S294L, N320D, A322D, K330R
light: not shown
notes: also called M6537; copies: 2 + 2
B5: H237-MB527/MRAL-k0 (antibody, mouse IgG1, kappa)
heavy: B1 heavy with S294L, N320D
light: not shown
notes: also called MG527; copies: 2 + 2
B6: H237-MB526/MRAL-k0 (antibody, mouse IgG1, kappa)
heavy: B1 heavy with S294L
light: not shown
notes: copies: 2 + 2
B7: H237-MB532/MRAL-k0 (antibody, mouse IgG1, kappa)
heavy: B1 heavy with A322D, K330R
light: not shown
notes: copies: 2 + 2
B8: H237-MB541/MRAL-k0 (antibody, mouse IgG1, kappa)
heavy: B1 heavy with Q229E, E235M, S294L, K330R
light: not shown
notes: copies: 2 + 2
B9: H237-MB540/MRAL-k0 (antibody, mouse IgG1, kappa)
heavy: B1 heavy with Q229E, E235M, S294L, A322D
light: not shown
notes: copies: 2 + 2
B10: H237-MB533/MRAL-k0 (antibody, mouse IgG1, kappa)
heavy: B1 heavy with S294L, N320D, A322D
light: not shown
notes: copies: 2 + 2
B11: H237-MB536/MRAL-k0 (antibody, mouse IgG1, kappa)
heavy: B1 heavy with N320D, A322D, K330R
light: not shown
notes: copies: 2 + 2
B12: H237-MB544/MRAL-k0 (antibody, mouse IgG1, kappa)
heavy: B1 heavy with Q229E, E235M, A322D, K330R
light: not shown
notes: copies: 2 + 2
B13: H237-MB529/MRAL-k0 (antibody, mouse IgG1, kappa)
heavy: B1 heavy with S294L, K330R
light: not shown
notes: copies: 2 + 2
B14: H237-MB530/MRAL-k0 (antibody, mouse IgG1, kappa)
heavy: B1 heavy with N320D, A322D
light: not shown
notes: copies: 2 + 2
B15: H237-MB515/MRAL-k0 (antibody, mouse IgG1, kappa)
heavy: B1 heavy with Q229E, E235M
light: not shown
notes: Template; copies: 2 + 2
B16: H237-MB528/MRAL-k0 (antibody, mouse IgG1, kappa)
heavy: B1 heavy with S294L, A322D
light: not shown
notes: copies: 2 + 2
B17: H237-MB535/MRAL-k0 (antibody, mouse IgG1, kappa)
heavy: B1 heavy with S294L, A322D, K330R
light: not shown
notes: copies: 2 + 2
B18: H237-MB539/MRAL-k0 (antibody, mouse IgG1, kappa)
heavy: B1 heavy with Q229E, E235M, S294L, N320D
light: not shown
notes: copies: 2 + 2
B19: H237-MB538/MRAL-k0 (antibody, mouse IgG1, kappa)
heavy: B1 heavy with Q229E, E235M, S294L
light: not shown
notes: copies: 2 + 2
B20: H237-MB543/MRAL-k0 (antibody, mouse IgG1, kappa)
heavy: B1 heavy with Q229E, E235M, N320D, K330R
light: not shown
notes: copies: 2 + 2
B21: H237-MB534/MRAL-k0 (antibody, mouse IgG1, kappa)
heavy: B1 heavy with S294L, N320D, K330R
light: not shown
notes: copies: 2 + 2

Columns and labels:
[1] = biological target: T1, mouse FcγRIII extracellular domain, …; assay: SPR Biacore T200, KD ratio
Source text: (§1) The antibody H chain variable region used was the variable region H237 (SEQ ID NO: 1) of the H chain VH3-IgG1 of the anti-IL-6 receptor antibody Fv4-IgG1 described in WO2009/125825. The antibody L chain commonly used was the L chain MRAL-k0 (SEQ ID NO: 2) of the anti-IL-6 receptor antibody tocilizumab. H237-MB476/MRAL-k0 and H237-MB515/MRAL-k0 were used as templates to introduce new alterations. These variants were expressed and purified by the method of Reference Example 1 and evaluated for their binding to mFcγRII and mFcγRIII by the method of Reference Example 2 using Biacore T200.
(§2) Each altered antibody was analyzed for its interaction with each Fcγ receptor prepared above using Biacore T100 (GE Healthcare Japan Corp.), Biacore T200 (GE Healthcare Japan Corp.), Biacore A100, or Biacore 4000. The running buffer used was HBS-EP+ (GE Healthcare Japan Corp.). The assay temperature was set to 25° C. The sensor chips used were chips prepared by immobilizing Protein L (ACTIGEN or BioVision) onto Series S Sensor Chip CM5 (GE Healthcare Japan Corp.) or Series S Sensor Chip CM4 (GE Healthcare Japan Corp.) by the amine coupling method.
(§3) In order to calculate the KD value of each altered antibody for FcγR, kinetic analysis was conducted according to the following method: first, the antibody of interest was captured onto any of these chips and allowed to interact with mFcγR diluted with a running buffer. For the obtained sensorgram, the assay results were globally fit into the 1:1 Langmuir binding model using Biacore Evaluation Software to calculate an association rate constant ka (L/mol/s) and a dissociation rate constant kd (1/s). From these values, the dissociation constant KD (mol/L) was calculated.

[2] = biological target: T2, mouse FcγRII extracellular domain, …; assay: SPR Biacore T200, KD ratio
Source text: as §1, §2, §3

[3] = biological target: T1, mouse FcγRIII extracellular domain, …; assay: SPR Biacore T200, KD ratio, template MB476
Source text: as §1, §2, §3

[4] = biological target: T2, mouse FcγRII extracellular domain, …; assay: SPR Biacore T200, KD ratio, template MB476
Source text: as §1, §2, §3

[5] = biological target: T1, mouse FcγRIII extracellular domain, …; assay: SPR Biacore T200, KD ratio, template MB515
Source text: as §1, §2, §3

[6] = biological target: T2, mouse FcγRII extracellular domain, …; assay: SPR Biacore T200, KD ratio, template MB515
Source text: as §1, §2, §3

| Binder | relative mFcγRIII-binding activity (mIgG1 = 1) [1] | relative mFcγRII-binding activity (mIgG1 = 1) [2] | relative mFcγRIII-binding activity (template = 1) [3] | relative mFcγRII-binding activity (template = 1) [4] | relative mFcγRII-binding activity (H237-mIgG1/MRAL-k0 = 1) [2] | relative mFcγRII-binding activity (template H237-MB515/MRAL-k0 = 1) [2] | relative mFcγRIII-binding activity (template = 1) [5] | relative mFcγRII-binding activity (template = 1) [6] | relative mFcγRII-binding activity (template H237-MB476/MRAL-k0 = 1) [2] |
| --- | --- | --- | --- | --- | --- | --- | --- | --- | --- |
| B1 | 2.6 fold | 261 fold | 1 fold | 1 fold | – | – | – | – | – |
| B2 | 3.3 fold | 229 fold | 1.25 fold | 0.88 fold | – | – | – | – | – |
| B3 | 3.4 fold | 384 fold | – | – | ≥ 350 fold | ≥ 1.4 fold | 2.57 fold | 2.8 fold | – |
| B4 | 8.9 fold | 510 fold | 3.36 fold | 1.95 fold | – | – | – | – | – |
| B5 | 5.5 fold | 273 fold | 2.09 fold | 1.05 fold | – | – | – | – | – |
| B6 | 8.5 fold | 232 fold | 3.23 fold | 0.89 fold | – | – | – | – | – |
| B7 | 6.2 fold | 329 fold | 2.35 fold | 1.26 fold | – | – | – | – | – |
| B8 | 3.3 fold | 103 fold | – | – | – | – | 2.48 fold | 0.75 fold | – |
| B9 | 2.8 fold | 149 fold | – | – | – | – | 2.15 fold | 1.09 fold | – |
| B10 | 7.2 fold | 394 fold | 2.74 fold | 1.51 fold | – | – | – | – | – |
| B11 | 7.7 fold | 396 fold | 2.9 fold | 1.52 fold | – | – | – | – | – |
| B12 | 3.2 fold | 276 fold | – | – | – | ≥ 1.4 fold | 2.45 fold | 2.01 fold | – |
| B13 | 5.9 fold | 282 fold | 2.24 fold | 1.08 fold | – | – | – | – | – |
| B14 | 8 fold | 623 fold | 3.04 fold | 2.38 fold | ≥ 350 fold | – | – | – | ≥ 1.4 fold |
| B15 | 1.3 fold | 137 fold | – | – | – | – | 1 fold | 1 fold | – |
| B16 | 14.6 fold | 375 fold | 5.52 fold | 1.44 fold | – | – | – | – | – |
| B17 | 8.5 fold | 422 fold | 3.21 fold | 1.61 fold | – | – | – | – | – |
| B18 | 1.9 fold | 105 fold | – | – | – | – | 1.45 fold | 0.77 fold | – |
| B19 | 1.7 fold | 86.2 fold | – | – | – | – | 1.3 fold | 0.63 fold | – |
| B20 | 2.2 fold | 195 fold | – | – | – | ≥ 1.4 fold | 1.69 fold | 1.42 fold | – |
| B21 | 33.8 fold | 421 fold | 12.8 fold | 1.61 fold | – | – | – | – | – |
